Reference: publication PMC8364239 (The Plant Cell, 2021)

T1: His6-tagged SEC5B (Arabidopsis thaliana, UniProt F4HWE6 1-1090)
T1 sequence: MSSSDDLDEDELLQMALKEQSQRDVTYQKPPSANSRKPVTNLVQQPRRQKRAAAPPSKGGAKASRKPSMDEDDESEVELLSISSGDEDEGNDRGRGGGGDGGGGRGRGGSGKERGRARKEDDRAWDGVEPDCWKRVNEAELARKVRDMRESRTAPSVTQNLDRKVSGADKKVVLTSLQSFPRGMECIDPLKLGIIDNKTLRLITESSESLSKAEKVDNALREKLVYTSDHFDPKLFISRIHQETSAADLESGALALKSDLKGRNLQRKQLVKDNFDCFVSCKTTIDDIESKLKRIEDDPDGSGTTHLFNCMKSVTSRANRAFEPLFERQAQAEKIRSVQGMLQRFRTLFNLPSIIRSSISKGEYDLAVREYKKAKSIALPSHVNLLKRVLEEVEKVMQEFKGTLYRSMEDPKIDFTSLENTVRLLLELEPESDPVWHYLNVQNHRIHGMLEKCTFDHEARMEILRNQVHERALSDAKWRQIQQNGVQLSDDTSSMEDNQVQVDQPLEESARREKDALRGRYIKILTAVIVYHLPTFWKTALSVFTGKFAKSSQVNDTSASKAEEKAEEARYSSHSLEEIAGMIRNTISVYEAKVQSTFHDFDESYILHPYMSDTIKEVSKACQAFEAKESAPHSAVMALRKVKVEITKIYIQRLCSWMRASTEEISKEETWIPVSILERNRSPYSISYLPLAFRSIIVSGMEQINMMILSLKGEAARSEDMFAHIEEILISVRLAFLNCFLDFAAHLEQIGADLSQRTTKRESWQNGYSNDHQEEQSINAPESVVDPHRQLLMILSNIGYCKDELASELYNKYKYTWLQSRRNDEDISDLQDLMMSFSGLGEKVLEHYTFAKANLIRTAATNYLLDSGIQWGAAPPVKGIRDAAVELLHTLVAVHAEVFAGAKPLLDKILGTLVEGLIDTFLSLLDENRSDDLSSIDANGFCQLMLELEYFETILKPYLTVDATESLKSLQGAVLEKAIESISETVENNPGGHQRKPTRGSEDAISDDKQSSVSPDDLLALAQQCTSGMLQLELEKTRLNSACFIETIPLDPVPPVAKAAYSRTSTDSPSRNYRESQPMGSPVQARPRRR

T2: His6-tagged SEC15B (Arabidopsis thaliana, UniProt F4JHH5 1-787)
T2 sequence: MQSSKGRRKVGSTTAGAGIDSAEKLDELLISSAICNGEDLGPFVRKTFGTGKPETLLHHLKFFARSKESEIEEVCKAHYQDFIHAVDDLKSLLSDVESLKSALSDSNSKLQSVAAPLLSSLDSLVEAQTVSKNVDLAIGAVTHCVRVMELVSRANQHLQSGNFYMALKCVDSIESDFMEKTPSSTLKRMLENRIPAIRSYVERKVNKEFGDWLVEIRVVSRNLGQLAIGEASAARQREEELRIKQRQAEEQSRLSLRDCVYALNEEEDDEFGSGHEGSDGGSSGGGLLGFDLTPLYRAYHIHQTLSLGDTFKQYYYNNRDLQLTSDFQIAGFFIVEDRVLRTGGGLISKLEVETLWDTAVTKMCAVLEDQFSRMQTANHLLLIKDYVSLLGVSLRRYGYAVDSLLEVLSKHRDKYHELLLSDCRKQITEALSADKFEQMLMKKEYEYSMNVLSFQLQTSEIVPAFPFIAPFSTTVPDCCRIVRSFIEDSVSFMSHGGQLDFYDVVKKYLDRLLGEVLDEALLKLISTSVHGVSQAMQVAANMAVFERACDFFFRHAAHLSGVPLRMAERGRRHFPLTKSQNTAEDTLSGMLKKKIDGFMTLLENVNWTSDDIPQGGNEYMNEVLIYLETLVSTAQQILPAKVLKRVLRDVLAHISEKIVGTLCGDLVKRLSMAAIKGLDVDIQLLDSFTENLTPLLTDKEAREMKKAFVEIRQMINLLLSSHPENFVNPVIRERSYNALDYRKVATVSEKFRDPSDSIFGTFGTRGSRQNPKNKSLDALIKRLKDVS

B1: GST-tagged myosin XIK GTD (wild type) (domain or fragment)
chain: ISPTSRTMATRSKTMLLPRTPENGNYLNGGTKTTPDMTLAVREPESEEKPQKHLNEKQQENQDLLVKCISQNLGYNGDKPVAACVIYKCLLHWRSFEVERTSVFDRIIQTIATAIEVPDNNEVLAYWLSNSATLLLLLQRTLKATGAASLTPQRRRTTSASLFGRMSQGLRGSPQSAGLSFLNRQGLTKLDDLRQVEAKYPALLFKQQLTAFLEKIYGMIRDNLKKEISPLLGLCIQAPRTSRASLVKGRAQANAVAQQALIAHWQSIRKSLNSYLNLMKANNAPPFLVRKVFTQIFSFINVQLFNSLLLRRECCSFSNGEYVKAGLAELEQWCIEATDEYAGSAWDELRHIRQAVGFLVIHQKPKKTLDEITRELCPVLSIQQLYRISTMYWDDKYGTHSVSSDVIANMRVMMTEDSNNAVSSSFLLDDDSSIPFTVEDISKSMQQVDVNDIEPPQLIRENSGFGFLLTRKEGSTS
B2: GST-XIK GTD K1103A (domain or fragment)
chain: ISPTSRTMATRSKTMLLPRTPENGNYLNGGTKTTPDMTLAVREPESEEAPQKHLNEKQQENQDLLVKCISQNLGYNGDKPVAACVIYKCLLHWRSFEVERTSVFDRIIQTIATAIEVPDNNEVLAYWLSNSATLLLLLQRTLKATGAASLTPQRRRTTSASLFGRMSQGLRGSPQSAGLSFLNRQGLTKLDDLRQVEAKYPALLFKQQLTAFLEKIYGMIRDNLKKEISPLLGLCIQAPRTSRASLVKGRAQANAVAQQALIAHWQSIRKSLNSYLNLMKANNAPPFLVRKVFTQIFSFINVQLFNSLLLRRECCSFSNGEYVKAGLAELEQWCIEATDEYAGSAWDELRHIRQAVGFLVIHQKPKKTLDEITRELCPVLSIQQLYRISTMYWDDKYGTHSVSSDVIANMRVMMTEDSNNAVSSSFLLDDDSSIPFTVEDISKSMQQVDVNDIEPPQLIRENSGFGFLLTRKEGSTS

How the values were obtained:
[1] = biological target: T1, His6-tagged SEC5B; assay: pull-down
[2] = biological target: T2, His6-tagged SEC15B; assay: pull-down

Binder | binding result [1] | binding result [2]
B1 | binds | binds
B2 | binds | –
